Data from article PMC8729806, “Chaperones mainly suppress primary nucleation during formation of functional amyloid required for bacterial biofilm formation†” (Chemical Science, 2021).

What was measured:
[1] = biological target: Full-length FapC (residues 25-250) from Pseudomonas sp. UK4, without its signal sequence (Pseudomonas sp. UK4)
[2] = biological target: CsgA from E. coli (residues 21-151), without its signal sequence (E. coli) (UniProt P28307)
[3] = biological target: CsgA from E. coli (residues 21-151), without its signal sequence (E. coli, UniProt P28307 21-151); assay: cell-based or functional assay
Sequence of CsgA from E. coli (residues 21-151), without its signal sequence (P28307 21-151): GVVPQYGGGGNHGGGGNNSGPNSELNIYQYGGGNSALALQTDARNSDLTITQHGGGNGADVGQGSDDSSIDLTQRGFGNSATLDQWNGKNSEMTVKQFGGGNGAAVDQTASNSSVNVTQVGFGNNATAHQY

Sequence of Full-length FapC (residues 25-250) from Pseudomonas sp. UK4, without its signal sequence (Pseudomonas sp. UK4) (P0DXF5 25-250 limits assumed): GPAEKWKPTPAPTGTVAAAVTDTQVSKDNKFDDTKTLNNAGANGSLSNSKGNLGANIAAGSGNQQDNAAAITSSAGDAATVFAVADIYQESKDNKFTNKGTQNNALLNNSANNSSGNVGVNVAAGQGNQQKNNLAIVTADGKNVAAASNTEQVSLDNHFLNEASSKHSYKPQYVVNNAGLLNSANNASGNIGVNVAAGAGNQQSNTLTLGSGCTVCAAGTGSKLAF
Sequence of CsgA from E. coli (residues 21-151), without its signal sequence (E. coli) (P28307 21-151): as the sequence (P28307 21-151) above

DNAJB6 mutant F91L, used as pseudowildtype (from UniProt O75190 1-326) (natural protein)
fold reduction of the primary nucleation rate constant kn of spontaneous FapC fibrillation (ThT kinetics, Amylofit), by 0.6 μM DNAJB6 (fold reduction) [1]: 1000
fold reduction of the primary nucleation rate constant kn of spontaneous CsgA fibrillation (ThT kinetics, Amylofit), by 0.12 μM DNAJB6 (fold reduction) [2]: 1e+07

Bri2 BRICHOS monomer (M-Bri2) (domain or fragment)
fold reduction of the primary nucleation rate constant kn of spontaneous FapC fibrillation (ThT kinetics, Amylofit), by 6 μM Bri2 monomer (fold reduction) [1]: 40
fold reduction of the primary nucleation rate constant kn of spontaneous CsgA fibrillation (ThT kinetics, Amylofit), by 1 μM Bri2 monomer (fold reduction) [2]: 1000

Bri2 BRICHOS oligomer (O-Bri2) (from UniProt Q9Y287 137-231) (domain or fragment)
fold reduction of the primary nucleation rate constant kn of spontaneous FapC fibrillation (ThT kinetics, Amylofit), by 6 μM Bri2 oligomer (fold reduction) [1]: 10
fold reduction of the primary nucleation rate constant kn of spontaneous CsgA fibrillation (ThT kinetics, Amylofit), by 1 μM Bri2 oligomer (fold reduction) [2]: 100000

B1: S100A9 (natural protein, human, UniProt P06702 1-114, looked up)
chain: MTCKMSQLERNIETIINTFHQYSVKLGHPDTLNQGEFKELVRKDLQNFLKKENKNEKVIEHIMEDLDTNADKQLSFEEFIMLMARLTWASHEKMHEGDEGPGHHHKPGLGEGTP
modifications: Alexa Fluor 546 label (peptide array only)
fold reduction of the primary nucleation rate constant kn of spontaneous CsgA fibrillation (ThT kinetics, Amylofit), at 4 μM S100A9 [3]: 20 fold reduction
fold reduction of the primary nucleation rate constant kn of spontaneous FapC fibrillation (ThT kinetics, Amylofit), at 50 μM S100A9 (fold reduction) [1]: 6

B2: CsgC (natural protein, UniProt P52107 9-110, looked up)
chain: ALSSQITFNTTQQGDVYTIIPEVTLTQSCLCRVQILSLREGSSGQSQTKQEKTLSLPANQPIALTKLSLNISPDDRVKIVVTVSDGQSLHLSQQWPPSSEKS
modifications: Alexa Fluor 546 label (peptide array only)
fold reduction of the primary nucleation rate constant kn of spontaneous CsgA fibrillation (ThT kinetics, Amylofit), by 1 μM CsgC [3]: ~100000 fold reduction
